Values of other authors, collected in article PMC4426885.

How the values were obtained:
vinculin (Homo sapiens) = vinculin (Homo sapiens) (UniProt P18206)
[1] = molecular target: vinculin D1 (Homo sapiens) (UniProt P18206)
[2] = molecular target: vinculin tail (Homo sapiens) (UniProt P18206)

Row | Kd (vinculin (Homo sapiens)) [nM] | Kd [1] [nM] | Kd [2] [nM] | Substance
1 | 2 | 2 |  | alpha-actinin peptide vinculin-binding site (from UniProt P12814)
2 |  |  | < 1 | vinculin head (from UniProt P18206)
